# Article PMC5639367 (2017)
# Ends that are not written are not given here.
# Molecular target: VBC ternary complex (pVHL, Elongin B, Elongin C) (UniProt P40337 1-213; Q15370 1-104; Q15369 17-112)
# Assay: BLI
row,Binder,Kd
1,"MSAKPRVV-NH2 [8-mer Cul2 peptide, Leu3 replaced by alanine]",2900 µM
2,"MALKPRVV-NH2 [8-mer Cul2 peptide, Ser2 replaced by alanine]",7100 µM
3,"ASLKPRVV-NH2 [8-mer Cul2 peptide, Met1 replaced by alanine]",2800 µM
4,"MSLKPRVA-NH2 [8-mer Cul2 peptide, Val8 replaced by alanine]",500 µM
5,"MSLKPRAV-NH2 [8-mer Cul2 peptide, Val7 replaced by alanine]",2100 µM
